B1: Tryptophan synthase alpha chain, P0A877 (parent)
chain: MERYESLFAQLKERKEGAFVPFVTLGDPGIEQSLKIIDTLIEAGADALELGIPFSDPLADGPTIQNATLRAFAAGVTPAQCFEMLALIRQKHPTIPIGLLMYANLVFNKGIDEFYAQCEKVGVDSVLVADVPVEESAPFRQAALRHNVAPIFICPPNADDDLLRQIASYGRGYTYLLSRAGVTGAENRAALPLNHLVAKLKEYNAAPPLQGFGISAPDQVKAAIDAGAAGAISGSAIVKIIEQHINEPEKMLAALKVFVQPMKAATRS

Variants of: B1
Conditions: Escherichia coli (strain K12), 25 °C, GdnHCl, CD, reversible: yes, structure 1WQ5, whole UniProt chain shown
[1] = pH 7, Potassium phosphate 0.01 M

Variant | ddG of mutation (higher = less stable) (pH 5.5, acetate 0.05 M) | unfolding free energy (pH 5.5, acetate 0.05 M) | ddG of mutation (higher = less stable) [1] | unfolding free energy [1] | ddG of mutation (higher = less stable) (pH 9, Tris-HCl 0.025 M) | unfolding free energy (pH 9, Tris-HCl 0.025 M)
MERYESLFAQLKERKEGAFVPFVTLGDPGIEQSLKIIDTLIEAGADALQLGIPFSDPLADGPTIQNATLRAFAAGVTPAQCFEMLALIRQKHPTIPIGLLMYANLVFNKGIDEFYAQCEKVGVDSVLVADVPVEESAPFRQAALRHNVAPIFICPPNADDDLLRQIASYGRGYTYLLSRAGVTGAENRAALPLNHLVAKLKEYNAAPPLQGFGISAPDQVKAAIDAGAAGAISGSAIVKIIEQHINEPEKMLAALKVFVQPMKAATRS [E49Q] | 2.4 kcal/mol | 2.8 kcal/mol | 2.5 kcal/mol | 6.3 kcal/mol | -3.6 kcal/mol | 8.5 kcal/mol
MERYESLFAQLKERKEGAFVPFVTLGDPGIEQSLKIIDTLIEAGADALYLGIPFSDPLADGPTIQNATLRAFAAGVTPAQCFEMLALIRQKHPTIPIGLLMYANLVFNKGIDEFYAQCEKVGVDSVLVADVPVEESAPFRQAALRHNVAPIFICPPNADDDLLRQIASYGRGYTYLLSRAGVTGAENRAALPLNHLVAKLKEYNAAPPLQGFGISAPDQVKAAIDAGAAGAISGSAIVKIIEQHINEPEKMLAALKVFVQPMKAATRS [E49Y] | 0.4 kcal/mol | 4.8 kcal/mol | 0 kcal/mol | 8.8 kcal/mol | -1.9 kcal/mol | 6.8 kcal/mol
MERYESLFAQLKERKEGAFVPFVTLGDPGIEQSLKIIDTLIEAGADALVLGIPFSDPLADGPTIQNATLRAFAAGVTPAQCFEMLALIRQKHPTIPIGLLMYANLVFNKGIDEFYAQCEKVGVDSVLVADVPVEESAPFRQAALRHNVAPIFICPPNADDDLLRQIASYGRGYTYLLSRAGVTGAENRAALPLNHLVAKLKEYNAAPPLQGFGISAPDQVKAAIDAGAAGAISGSAIVKIIEQHINEPEKMLAALKVFVQPMKAATRS [E49V] | -0.9 kcal/mol | 6.1 kcal/mol | -3.2 kcal/mol | 12 kcal/mol | -4.5 kcal/mol | 9.4 kcal/mol
MERYESLFAQLKERKEGAFVPFVTLGDPGIEQSLKIIDTLIEAGADALMLGIPFSDPLADGPTIQNATLRAFAAGVTPAQCFEMLALIRQKHPTIPIGLLMYANLVFNKGIDEFYAQCEKVGVDSVLVADVPVEESAPFRQAALRHNVAPIFICPPNADDDLLRQIASYGRGYTYLLSRAGVTGAENRAALPLNHLVAKLKEYNAAPPLQGFGISAPDQVKAAIDAGAAGAISGSAIVKIIEQHINEPEKMLAALKVFVQPMKAATRS [E49M] | -0.7 kcal/mol | 5.9 kcal/mol | -4.5 kcal/mol | 13.3 kcal/mol | -3.5 kcal/mol | 8.4 kcal/mol
MERYESLFAQLKERKEGAFVPFVTLGDPGIEQSLKIIDTLIEAGADALSLGIPFSDPLADGPTIQNATLRAFAAGVTPAQCFEMLALIRQKHPTIPIGLLMYANLVFNKGIDEFYAQCEKVGVDSVLVADVPVEESAPFRQAALRHNVAPIFICPPNADDDLLRQIASYGRGYTYLLSRAGVTGAENRAALPLNHLVAKLKEYNAAPPLQGFGISAPDQVKAAIDAGAAGAISGSAIVKIIEQHINEPEKMLAALKVFVQPMKAATRS [E49S] | 1.3 kcal/mol | 3.9 kcal/mol | 1.4 kcal/mol | 7.4 kcal/mol | -3.1 kcal/mol | 8 kcal/mol
